Numbering of substitutions follows the chain as printed. Names and notes keep the numbering of the source. One block for each binder: values may come before it.
Columns and labels:
[1] = target: T1, human OX40-Fc (R&D Systems cat no. 3388-OX) (human, UniProt P43489 29-216, limits assumed); assay: ELISA, plate-coated human OX40-Fc; legend: No binding (-)
T1 sequence (looked up): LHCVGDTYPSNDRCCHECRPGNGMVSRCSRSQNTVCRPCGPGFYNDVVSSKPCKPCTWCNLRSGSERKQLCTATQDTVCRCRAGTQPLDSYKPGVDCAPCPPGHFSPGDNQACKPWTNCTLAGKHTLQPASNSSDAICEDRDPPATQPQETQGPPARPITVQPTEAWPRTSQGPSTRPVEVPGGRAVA
Method: (§1) Specificity of binding for CD137 over the tumour necrosis factor receptor family members OX40, GITR (Glucocorticoid-induced TNFR-related), CD40 and HVEM was determined using an ELISA assay. Nunc Maxisorp plates were coated with 1 ug/ml human CD137-Fc recombinant protein (Acro Biosystems 41B-H5258), human GITR-Fc (R&D Systems cat no. 689-GR) human OX40-Fc (R&D Systems cat no. 3388-OX), human CD40 (R&D Systems cat no. CDO-H5253), human HVEM (R&D Systems cat no. HVM-H5258) in PBS overnight at 4° C. then washed twice with PBS. Non-specific protein interactions were blocked by incubation with 1% (w/v) skimmed milk powder (Marvel®) in PBS/0.1% Tween-20 for 1 hour at room temperature. Plates were washed twice with PBS then VH or antibody control (1 ug/ml) added for 1 hour at room temperature. Following three washes with PBS/0.1% Tween-20 a 1:1000 dilution of anti His-HRP (VH detection) or anti mouse-HRP (positive control mouse monoclonal antibody detection) was added in 1% Marvel/PBS/0.1% Tween-20. The detection antibodies were allowed to bind for 1 hour at room temperature then the plates were washed twice in PBS/0.1% Tween-20 and once in PBS. The ELISA was developed using TMB substrate and the reaction was stopped by the addition of 50 ul 0.5M H₂SO₄ solution. The absorbance at 450 nm was measured using the BMG Pherastar.

[2] = target: T2, human CD137 expressed on CHO cells (human, UniProt Q07011 18-255); assay: FMAT/Mirrorball on CHO huCD137 cells
T2 construct: also called CHO huCD137; CHO human CD137 cells
Procedure, shortened: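 His-tagged VH molecules bound to CHO cells expressing human PD-1 or human CD137, with CHO parent cells as control, in PBS pH 7.4, 0.1% BSA, 0.05% sodium azide. Read by FMAT on Mirrorball (ex 488/640 nm); binding taken as FL2 median fluorescence intensity of FL5-gated events.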

[3] = target: T3, Rhesus CD137-Fc tagged protein (rhesus, UniProt H9Z8K9 24-186); assay: BLI (Octet RED384), CD137-Fc on Protein G sensor, 1:1 model
T3 construct: extracellular domain; The Octet paragraph gives no catalogue number; also called rhCD137-Fc

[4] = target: T4, human HVEM (R&D Systems cat no. HVM-H5258) (human, UniProt Q92956 39-202, limits assumed); assay: ELISA, plate-coated human HVEM; legend: No binding (-)
T4 sequence (looked up): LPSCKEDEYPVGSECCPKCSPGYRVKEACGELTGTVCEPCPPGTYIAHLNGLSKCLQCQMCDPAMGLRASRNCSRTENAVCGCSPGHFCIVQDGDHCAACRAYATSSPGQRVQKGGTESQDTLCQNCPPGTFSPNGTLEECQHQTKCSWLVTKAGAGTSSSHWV
Method: as §1

[5] = target: human CD40 (R&D Systems cat no. CDO-H5253) (human, UniProt P25942 21-193, limits assumed); assay: ELISA, plate-coated human CD40; legend: No binding (-)
Method: as §1

[6] = target: T5, human GITR-Fc (R&D Systems cat no. 689-GR) (human, UniProt Q9Y5U5 26-161); assay: ELISA, plate-coated human GITR-Fc; legend: No binding (-)
T5 construct: also called Glucocorticoid-induced TNFR-related
T5 sequence (looked up): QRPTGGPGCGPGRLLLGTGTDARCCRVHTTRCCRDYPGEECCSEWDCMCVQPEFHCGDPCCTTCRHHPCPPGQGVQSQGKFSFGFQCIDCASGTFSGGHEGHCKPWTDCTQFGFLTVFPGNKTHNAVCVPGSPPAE
Method: as §1

[7] = target: T6, human HVEM (R&D Systems cat no. HVM-H5258) (human, UniProt Q92956 39-202, limits assumed); assay: ELISA, plate coated with 1 ug/ml recombinant protein, anti His-HRP detection
T6 construct: Bought protein
T6 sequence (looked up): T4 sequence (looked up)
Method: as §1

[8] = target: T7, human CD40 (R&D Systems cat no. CDO-H5253) (human, UniProt P25942 21-193, limits assumed); assay: as above
T7 construct: Bought protein
Method: as §1

[9] = target: T8, human GITR-Fc (R&D Systems cat no. 689-GR) (human, UniProt Q9Y5U5 26-161); assay: as above
T8 construct: Bought protein; also called Glucocorticoid-induced TNFR-related
T8 sequence (looked up): T5 sequence (looked up)
Method: as §1

[10] = target: T9, human OX40-Fc (R&D Systems cat no. 3388-OX) (human, UniProt P43489 29-216); assay: as above
T9 construct: Bought protein
T9 sequence (looked up): T1 sequence (looked up)
Method: as §1

[11] = target: T10, full-length rhesus CD137 (Sino Biologics 90847-K02H), huFc tag (rhesus, UniProt F6W5G6 24-186); assay: BLI (ForteBio Octet RED 384), CD137-Fc on Protein G biosensors, 1:1 model
T10 construct: Bought protein; also called rhCD137-Fc; Rhesus CD137-Fc tagged protein; not shown: human Fc tag (huFc) and any linker to it
Method: Binding kinetics of purified monovalent VH molecules were measured on a ForteBio Octet RED 384 instrument. Human and Rhesus CD137-Fc tagged protein was diluted to 5 μg/ml in kinetics buffer (0.05% Tween, 1×PBS) and coupled to Protein G biosensors (ForteBio cat no. 18-5082) via the Fc tag. VH were serially diluted (typically 1:2 dilution series starting with 200 nM, VH at the highest concentration) and binding to the CD137-Fc-coupled Protein G biosensors measured. Binding kinetics were determined from the (blank subtracted) sensor gram trace using 1:1 binding models and ForteBio Octet Data Analysis 9.0 software. Example kinetic and binding affinity data obtained is shown Table 18 (monovalent VH).

[12] = target: T11, human CD137 expressed on cells (Jurkat human CD137 NF-kB luciferase reporter cells; human CD8+ T cells) (human, UniProt Q07011 24-255); assay: cell-based or functional assay
[13] = target: T12, recombinant Fc-tagged ectodomain of human CD137 (Acro Biosystems 41B-H5258) (human, UniProt Q07011 24-186); assay: SPR, Biacore 8K, single-cycle kinetics; Fc-tagged ectodomain captured on Protein G chip; 1:1 model
T12 construct: Bought protein; not shown: Fc tag
Procedure, shortened: (§2)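 Single-cycle kinetics: Humabody VH constructs injected 90 s at low to high nanomolar concentrations over captured Fc-tagged ectodomains. Surface regenerated with 10 mM glycine pH 1.5. Kinetics fitted to a 1:1 binding model, including two-PD-1-arm constructs.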

[14] = target: T13, recombinant Fc-tagged ectodomain of cynomolgus PD1 (Acro Biosystems PD1-C5254) (cynomolgus macaque, UniProt B0LAJ3 25-170); assay: as above
T13 construct: Bought protein; also called Cyno PD1; cynomolgus macaque PD1; not shown: Fc tag and any linker to it
Procedure, shortened: as §2

[15] = target: T14, recombinant Fc-tagged ectodomain of cynomolgus CD137 (R&D S9324-4b) (cynomolgus macaque, UniProt A9YYE7 24-186); assay: as above
T14 construct: Bought protein; also called Cyno CD137; cynomolgus macaque CD137; not shown: Fc tag and any linker to it
Procedure, shortened: as §2

[16] = target: T15, recombinant Fc-tagged ectodomain of human PD1 (Acro Biosystems PD1-H5257) (human, UniProt Q15116 25-170); assay: as above
T15 construct: Bought protein; not shown: Fc tag
Procedure, shortened: as §2

[17] = target: T11, human CD137 expressed on cells (Jurkat …); assay: cell-based or functional assay; remark: listed apart in the source

binding result [7]: no binding (tested: 1 ug/ml)
binding result [8]: no binding (tested: 1 ug/ml)
binding result [9]: no binding (tested: 1 ug/ml)
binding result [10]: no binding (tested: 1 ug/ml)
B5: 003BB172-E01-14 (VHH)
VH: EVQLVESGGGVVQPGRSLRLSCAASGFTFSNYGMHWVRQAPGKGLEWVAVISNDGNTKTYADSVKGRFTISRDNSKNTLYLQMNSLRAEDTAVYYCAQDETTTVTASYYFDYWGQGTLVTVSS
notes: Human VH single domain antibody, His-tagged in the assays; not shown: C-terminal 6xHIS tag

Kd [11]: 41.4 nM
B6: 003BB172-E01-8 (VHH)
VHH: B5 VH with R16G, A88T
notes: as for B5

Jurkat-CD137/CHO-PD-1 Reporter Assay EC50 [12]: 11.3 pM
Kd [13]: 2.57 nM
koff [13]: 0.000151 s⁻¹
kon [13]: 58600 M⁻¹ s⁻¹
Kd [14]: 3.41 nM
koff [14]: 0.000407 s⁻¹
kon [14]: 119000 M⁻¹ s⁻¹
Kd [15]: 4.34 nM
koff [15]: 0.000226 s⁻¹
kon [15]: 52200 M⁻¹ s⁻¹
Kd [16]: 2.31 nM
koff [16]: 0.000212 s⁻¹
kon [16]: 91500 M⁻¹ s⁻¹
CD8+ T-cell activation assay - IL-2 release, EC50 [17]: 146 pM
B7: TPP-1293 (PDBlocker1.92-6GS-CD137A-6GS-HSA2) (bispecific antibody)
chain: EVQLVESGGGLVKPGGSLRLSCAASGFTFSDESMTWMRQAPGKGLEWVSYISSGGGVKFYADSVKGRFTISRDNAKNSLYLQMNSLRAEDTAVYYCAREAPLRLGESPHDAFDISGQGTMVTVSSGGGGSGGGGSGGGGSGGGGSGGGGSGGGGSEVQLVESGGGLVQPGGSLRLSCAASGFTLSNYWMNWVRQAPGKGLEWVANINQDGSERYYVDSVKGRFTISRDNAKNSLYLQMNSLRAEDTAVYYCARGGEGYGVDHYGLDVSGQGTTVTVSSGGGGSGGGGSGGGGSGGGGSGGGGSGGGGSEVQLVESGGGLVKPGGSLRLSCAASGFTFSNYNMNWVRQAPGKGLEWVSSISSAGTHIYYADSVKGRFTISRDNAKNSLYLQMNSLRAEDTAVYYCARDPHSTGWYKDFDYWGQGTLVTVSS
notes: The chain is therefore built from the parts named in the composition

Jurkat-CD137/CHO-PD-1 Reporter Assay EC50 [12]: 20 pM
Kd [13]: 0.652 nM
koff [13]: 0.000185 s⁻¹
kon [13]: 283000 M⁻¹ s⁻¹
Kd [14]: 17.4 nM
koff [14]: 0.00539 s⁻¹
kon [14]: 310000 M⁻¹ s⁻¹
Kd [15]: 1.03 nM
koff [15]: 0.000255 s⁻¹
kon [15]: 247000 M⁻¹ s⁻¹
Kd [16]: 7.07 nM
koff [16]: 0.00244 s⁻¹
kon [16]: 345000 M⁻¹ s⁻¹
CD8+ T-cell activation assay - IL-2 release, EC50 [17]: 199 pM
B8: TPP-1290 PD138G7(G109D)-6GS-CD137A-6GS-HSA2 (bispecific antibody)
chain: EVQLVESGGGVVRPGGSLRLSCAASGFTFDDYAMSWVRQAPGKGLEWVSGITWNGGSTGYADSVKDRFTISRDNAKNSLYLQMNSLRAEDTALYYCVRDKYSYAWSYDDFDIWGQGTMVTVSSGGGGSGGGGSGGGGSGGGGSGGGGSGGGGSEVQLVESGGGLVQPGGSLRLSCAASGFTLSNYWMNWVRQAPGKGLEWVANINQDGSERYYVDSVKGRFTISRDNAKNSLYLQMNSLRAEDTAVYYCARGGEGYGVDHYGLDVSGQGTTVTVSSGGGGSGGGGSGGGGSGGGGSGGGGSGGGGSEVQLVESGGGLVKPGGSLRLSCAASGFTFSNYNMNWVRQAPGKGLEWVSSISSAGTHIYYADSVKGRFTISRDNAKNSLYLQMNSLRAEDTAVYYCARDPHSTGWYKDFDYWGQGTLVTVSS

Continued, binder first:

B1: 003BB172-E01 (VHH)
VHH: B5 VH with V11L, R16G, G44R, T78M, N84T, A88T
notes: also called 003BB1172-E01
binding result [1]: no binding (tested: 1 ug/ml)
EC50 [2]: 1.73 nM
Kd [3]: 27.5 nM
koff [3]: 0.00131 s⁻¹
kon [3]: 47800 M⁻¹ s⁻¹
binding result [4]: no binding (tested: 1 ug/ml)
binding result [5]: no binding (tested: 1 ug/ml)
binding result [6]: no binding (tested: 1 ug/ml)

B2: 003BB172-E01 (VHH)
VH: B5 VH with V11L, R16G, G44R, T78M, N84T, A88T
notes: Human VH single domain antibody (Humabody), monovalent, His-tagged in the assays; also called 003BB1172-E01; not shown: C-terminal 6xHIS tag
binding result [7]: no binding (tested: 1 ug/ml)
binding result [8]: no binding (tested: 1 ug/ml)
binding result [9]: no binding (tested: 1 ug/ml)
binding result [10]: no binding (tested: 1 ug/ml)

B3: 003BB172-E01-5 (VHH)
VH: B5 VH with V11L, R16G, G44R, A88T
notes: as for B5
Kd [11]: 11.5 nM

B4: 003BB172-E01-14 (VHH)
VHH: B5 VH
notes: Human VH single domain antibody, monovalent
binding result [1]: no binding (tested: 1 ug/ml)
EC50 [2]: 1.29 nM
Kd [3]: 25.9 nM
koff [3]: 0.00159 s⁻¹
kon [3]: 61300 M⁻¹ s⁻¹
binding result [4]: no binding (tested: 1 ug/ml)
binding result [5]: no binding (tested: 1 ug/ml)
binding result [6]: no binding (tested: 1 ug/ml)

Source: patent US20220220215A1 (CRESCENDO BIOLOGICS, published 2022)
